Measured values: article PMC7898959, “Identification of an amino-terminus determinant critical for ryanodine receptor/Ca^2+ release channel function” (Cardiovascular Research, 2020)
Substitutions are numbered along the chain they refer to. Names may count otherwise.

B1: NT^Δβ23–β24 (RyR2 residues 1–906, residues 399–401 removed) (domain or fragment, human, UniProt Q92736 1-906, looked up)
chain: MADGGEGEDEIQFLRTDDEVVLQCTATIHKEQQKLCLAAEGFGNRLCFLESTSNSKNVPPDLSICTFVLEQSLSVRALQEMLANTVEKSEGQVDVEKWKFMMKTAQGGGHRTLLYGHAILLRHSYSGMYLCCLSTSRSSTDKLAFDVGLQEDTTGEACWWTIHPASKQRSEGEKVRVGDDLILVSVSSERYLHLSYGNGSLHVDAAFQQTLWSVAPISSGSEAAQGYLIGGDVLRLLHGHMDECLTVPSGEHGEEQRRTVHYEGGAVSVHARSLWRLETLRVAWSGSHIRWGQPFRLRHVTTGKYLSLMEDKNLLLMDKEKADVKSTAFTFRSSKEKLDVGVRKEVDGMGTSEIKYGDSVCYIQHVDTGLWLTYQSVDVKSVRMGSIQRKAIMHHEGHGISLSRSQHEESRTARVIRSTVFLFNRFIRGLDALSKKAKASTVDLPIESVSLSLQDLIGYFHPPDEHLEHEDKQNRLRALKNRQNLFQEEGMINLVLECIDRLHVYSSAAHFADVAGREAGESWKSILNSLYELLAALIRGNRKNCAQFSGSLDWLISRLERLEASSGILEVLHCVLVESPEALNIIKEGHIKSIISLLDKHGRNHKVLDVLCSLCVCHGVAVRSNQHLICDNLLPGRDLLLQTRLVNHVSSMRPNIFLGVSEGSAQYKKWYYELMVDHTEPFVTAEATHLRVGWASTEGYSPYPGGGEEWGGNGVGDDLFSYGFDGLHLWSGCIARTVSSPNQHLLRTDDVISCCLDLSAPSISFRINGQPVQGMFENFNIDGLFFPVVSFSAGIKVRFLLGGRHGEFKFLPPPGYAPCYEAVLPKEKLKVEHSREYKQERTYTRDLLGPTVSLTQAAFTPIPVDTSQIVLPPHLERIREKLAENIHELWVMNKIELGWQYGP
notes: cardiac ryanodine receptor (RyR2), N-terminus, residues 1-906, with residues 399-401 removed; source: HEK293, transiently transfected, in cell homogenate; not shown: cMyc, N-terminal, kept
B2: NT^Δβ8–β9 (RyR2 residues 1–906, residues 167–178 removed) (domain or fragment, human, UniProt Q92736 1-906, looked up)
chain: MADGGEGEDEIQFLRTDDEVVLQCTATIHKEQQKLCLAAEGFGNRLCFLESTSNSKNVPPDLSICTFVLEQSLSVRALQEMLANTVEKSEGQVDVEKWKFMMKTAQGGGHRTLLYGHAILLRHSYSGMYLCCLSTSRSSTDKLAFDVGLQEDTTGEACWWTIHPASDDLILVSVSSERYLHLSYGNGSLHVDAAFQQTLWSVAPISSGSEAAQGYLIGGDVLRLLHGHMDECLTVPSGEHGEEQRRTVHYEGGAVSVHARSLWRLETLRVAWSGSHIRWGQPFRLRHVTTGKYLSLMEDKNLLLMDKEKADVKSTAFTFRSSKEKLDVGVRKEVDGMGTSEIKYGDSVCYIQHVDTGLWLTYQSVDVKSVRMGSIQRKAIMHHEGHMDDGISLSRSQHEESRTARVIRSTVFLFNRFIRGLDALSKKAKASTVDLPIESVSLSLQDLIGYFHPPDEHLEHEDKQNRLRALKNRQNLFQEEGMINLVLECIDRLHVYSSAAHFADVAGREAGESWKSILNSLYELLAALIRGNRKNCAQFSGSLDWLISRLERLEASSGILEVLHCVLVESPEALNIIKEGHIKSIISLLDKHGRNHKVLDVLCSLCVCHGVAVRSNQHLICDNLLPGRDLLLQTRLVNHVSSMRPNIFLGVSEGSAQYKKWYYELMVDHTEPFVTAEATHLRVGWASTEGYSPYPGGGEEWGGNGVGDDLFSYGFDGLHLWSGCIARTVSSPNQHLLRTDDVISCCLDLSAPSISFRINGQPVQGMFENFNIDGLFFPVVSFSAGIKVRFLLGGRHGEFKFLPPPGYAPCYEAVLPKEKLKVEHSREYKQERTYTRDLLGPTVSLTQAAFTPIPVDTSQIVLPPHLERIREKLAENIHELWVMNKIELGWQYGP
notes: also called β8–β9 loop deletion; source: HEK293, transiently transfected, in cell homogenate (cross-linking) or CHAPS-solubilized lysate (co-IP); not shown: cMyc, N-terminal, kept
B3: NT^(E173A + K174A) (RyR2 residues 1–906) (domain or fragment, human, UniProt Q92736 1-906, looked up)
chain: MADGGEGEDEIQFLRTDDEVVLQCTATIHKEQQKLCLAAEGFGNRLCFLESTSNSKNVPPDLSICTFVLEQSLSVRALQEMLANTVEKSEGQVDVEKWKFMMKTAQGGGHRTLLYGHAILLRHSYSGMYLCCLSTSRSSTDKLAFDVGLQEDTTGEACWWTIHPASKQRSEGAAVRVGDDLILVSVSSERYLHLSYGNGSLHVDAAFQQTLWSVAPISSGSEAAQGYLIGGDVLRLLHGHMDECLTVPSGEHGEEQRRTVHYEGGAVSVHARSLWRLETLRVAWSGSHIRWGQPFRLRHVTTGKYLSLMEDKNLLLMDKEKADVKSTAFTFRSSKEKLDVGVRKEVDGMGTSEIKYGDSVCYIQHVDTGLWLTYQSVDVKSVRMGSIQRKAIMHHEGHMDDGISLSRSQHEESRTARVIRSTVFLFNRFIRGLDALSKKAKASTVDLPIESVSLSLQDLIGYFHPPDEHLEHEDKQNRLRALKNRQNLFQEEGMINLVLECIDRLHVYSSAAHFADVAGREAGESWKSILNSLYELLAALIRGNRKNCAQFSGSLDWLISRLERLEASSGILEVLHCVLVESPEALNIIKEGHIKSIISLLDKHGRNHKVLDVLCSLCVCHGVAVRSNQHLICDNLLPGRDLLLQTRLVNHVSSMRPNIFLGVSEGSAQYKKWYYELMVDHTEPFVTAEATHLRVGWASTEGYSPYPGGGEEWGGNGVGDDLFSYGFDGLHLWSGCIARTVSSPNQHLLRTDDVISCCLDLSAPSISFRINGQPVQGMFENFNIDGLFFPVVSFSAGIKVRFLLGGRHGEFKFLPPPGYAPCYEAVLPKEKLKVEHSREYKQERTYTRDLLGPTVSLTQAAFTPIPVDTSQIVLPPHLERIREKLAENIHELWVMNKIELGWQYGP
notes: cardiac ryanodine receptor (RyR2), N-terminus, residues 1-906, double alanine substitution E173 + K174; negative control mutant; source: HEK293, transiently transfected, in cell homogenate; not shown: cMyc, N-terminal, kept
B4: wild-type RyR2 N-terminus (NT, residues 1–906) tagged with the cMyc epitope (domain or fragment, human, UniProt Q92736 1-906, looked up)
chain: B3 chain with A173E, A174K
notes: cardiac ryanodine receptor (RyR2), N-terminus, residues 1-906; species is stated for the full-length RyR2 cDNA (human), not for NT itself; also called NT^WT; source: HEK293, transiently transfected, in cell homogenate (cross-linking) or CHAPS-solubilized lysate (co-IP); not shown: cMyc, N-terminal, kept
B5: NT^(K167A + Q168A) (RyR2 residues 1–906) (domain or fragment, human, UniProt Q92736 1-906, looked up)
chain: B3 chain with K167A, Q168A, A173E, A174K
notes: cardiac ryanodine receptor (RyR2), N-terminus, residues 1-906, double alanine substitution K167 + Q168; source: HEK293, transiently transfected, in cell homogenate; not shown: cMyc, N-terminal, kept
B6: NT^(D179A + D180A) (RyR2 residues 1–906) (domain or fragment, human, UniProt Q92736 1-906, looked up)
chain: B3 chain with A173E, A174K, D179A, D180A
notes: cardiac ryanodine receptor (RyR2), N-terminus, residues 1-906, double alanine substitution D179 + D180; also called D179A + D180A mutant; source: HEK293, transiently transfected, in cell homogenate; not shown: cMyc, N-terminal, kept
B7: NT^R176Q (RyR2 residues 1–906 with the arrhythmia-linked R176Q mutation) (domain or fragment, human, UniProt Q92736 1-906, looked up)
chain: B3 chain with A173E, A174K, R176Q
notes: cardiac ryanodine receptor (RyR2), N-terminus, residues 1-906, with the disease-linked (ARVD2, CPVT) mutation R176Q; source: HEK293, transiently transfected, in cell homogenate (cross-linking) or CHAPS-solubilized lysate (co-IP); not shown: cMyc, N-terminal, kept

Biological target: the molecule itself
Assay: cross-linking; HEK293 cell homogenate (20 μg) with glutaraldehyde (0.0025% or 260 μmol/L) for 0 min to 1 h under reducing (10 mM DTT) conditions; SDS-PAGE and blot with Ab^cMyc; tetramer formation T = ODT/(ODT + ODM) × 100 by densitometry
With B1 the “stoichiometry N” value was 4. B2 was tested, and the “stoichiometry N” value was 4. In the case of B3, the “stoichiometry N” value is reported as 4. B4 was tested, and the “stoichiometry N” value was 4. In the case of B5, the “stoichiometry N” value is reported as 4. For B6, the “stoichiometry N” value was 4. For B7, the “stoichiometry N” value was 4.
